Test results reported in patent publication US20190194347A1, “ANTIBODIES FOR EPIDERMAL GROWTH FACTOR RECEPTOR 3 (HER3)” (NOVARTIS AG, priority 2010, published 2019).

Columns and labels:
[1] = target: endogenous human HER3 on human cancer cells (SK-Br-3, MCF7, BT-474) (human, UniProt P21860 20-1342); assay: cell-based or functional assay
[2] = target: T1, HER3 K267A (CD33-[Human HER3, residues 20-640, K267A]-TAG) (human, UniProt P21860 20-640); assay: ELISA titration on coated recombinant mutant HER3
T1 construct: also called HER3 K267A-Tag; not shown: C-terminal TAG (e.g., FLAG TAG)

[3] = target: T2, HER3 L268A (CD33-[Human HER3, residues 20-640, L268A]-TAG) (human, UniProt P21860 20-640); assay: ELISA titration on coated recombinant mutant HER3
T2 construct: also called HER3 L268A-Tag; not shown: C-terminal TAG (e.g., FLAG TAG)

| Binder | % inhibition of proliferation, BT-474, 10 µg/ml IgG [1] [%] | % inhibition of proliferation, MCF7 (neuregulin stimulated), 10 µg/ml IgG [1] [%] | % inhibition of proliferation, SK-Br-3, 10 µg/ml IgG [1] [%] | binding result [2] | binding result [3] |
| --- | --- | --- | --- | --- | --- |
| MOR09823 (antibody, V domains shown) VH: QVQLVESGGGLVQPGGSLRLSCAASGFTFSSYAMSWVRQAPGKGLEWVSVTGAVGRTYYPDSVKGRFTISRDNSKNTLYLQMNSLRAEDTAVYYCARWGDEGFDIWGQGTLVTVSS VL: DIQMTQSPSSLSASVGDRVTITCRASQGISNWLAWYQQKPGKAPKLLIYGASSLQSGVPSRFSGSGSGTDFTLTISSLQPEDFAVYYCQQYSSFPTTFGQGTKVEIKR | 39.8 | 82 | 39 |  |  |
| MOR09825 (antibody, human IgG1, kappa, V domains shown) VH: QVQLVESGGGLVQPGGSLRLSCAASGFTFSSYAMSWVRQAPGKGLEWVSAINSQGKSTYYADSVKGRFTISRDNSKNTLYLQMNSLRAEDTAVYYCARWGDEGFDIWGQGTLVTVSS VL: DIQMTQSPSSLSASVGDRVTITCRASQGISNWLAWYQQKPGKAPKLLIYGASSLQSGVPSRFSGSGSGTDFTLTISSLQPEDFAVYYCQQYSSFPTTFGQGTKVEIKR | 37.2 | 63 | 41 |  |  |
| MOR09974 (antibody, human IgG1, kappa, V domains shown) VH: QVQLVESGGGLVQPGGSLRLSCAASGFTFSSYAMSWVRQAPGKGLEWVSVINPSGNFTNYADSVKGRFTISRDNSKNTLYLQMNSLRAEDTAVYYCARWGDEGFDIWGQGTLVTVSS VL: DIQMTQSPSSLSASVGDRVTITCRASQGISNWLAWYQQKPGKAPKLLIYGASSLQSGVPSRFSGSGSGTDFTLTISSLQPEDFAVYYCQQYSSFPTTFGQGTKVEIKR |  | 20 | 35 |  |  |
| MOR09824 (antibody, human IgG1, kappa, V domains shown) VH: QVQLVESGGGLVQPGGSLRLSCAASGFTFSSYAMSWVRQAPGKGLEWVSVISAWGHVKYYADSVKGRFTISRDNSKNTLYLQMNSLRAEDTAVYYCARWGDEGFDIWGQGTLVTVSS VL: DIQMTQSPSSLSASVGDRVTITCRASQGISNWLAWYQQKPGKAPKLLIYGASSLQSGVPSRFSGSGSGTDFTLTISSLQPEDFAVYYCQQYSSFPTTFGQGTKVEIKR | 36.8 | 82 | 33 |  |  |

Continued, in another order:

| % inhibition of proliferation, BT-474, 10 µg/ml IgG [1] [%] | % inhibition of proliferation, MCF7 (neuregulin stimulated), 10 µg/ml IgG [1] [%] | % inhibition of proliferation, SK-Br-3, 10 µg/ml IgG [1] [%] | Binder | binding result [2] | binding result [3] |
| --- | --- | --- | --- | --- | --- |
| 43.8 |  |  | MOR10702 (antibody, human IgG1, kappa, V domains shown) VH: EVQLLESGGGLVQPGGSLRLSCAASGFTFSSYAMSWVRQAPGKGLEWVSVISAWGHVKYYADSVKGRFTISRDNSKNTLYLQMNSLRAEDTAVYYCARWGDEGFDIWGQGTLVTVSS VL: DIQMTQSPSSLSASVGDRVTITCRASQGISNWLAWYQQKPGKAPKLLIYGASSLQSGVPSRFSGSGSGTDFTLTISSLQPEDFATYYCQQYSSFPTTFGQGTKVEIKR |  |  |
| 41.6 | 81 | 35 | MOR10703 (antibody, human IgG1, kappa, V domains shown) VH: EVQLLESGGGLVQPGGSLRLSCAASGFTFSSYAMSWVRQAPGKGLEWVSAINSQGKSTYYADSVKGRFTISRDNSKNTLYLQMNSLRAEDTAVYYCARWGDEGFDIWGQGTLVTVSS VL: DIQMTQSPSSLSASVGDRVTITCRASQGISNWLAWYQQKPGKAPKLLIYGASSLQSGVPSRFSGSGSGTDFTLTISSLQPEDFATYYCQQYSSFPTTFGQGTKVEIKR | no binding (tested: up to 10 µg/mL antibody (Example 7)) | no binding (tested: up to 10 µg/mL antibody (Example 7)) |
| 43.6 |  |  | MOR10701 (antibody, human IgG1, kappa, V domains shown) VH: EVQLLESGGGLVQPGGSLRLSCAASGFTFSSYAMSWVRQAPGKGLEWVSVTGAVGRSTYYPDSVKGRFTISRDNSKNTLYLQMNSLRAEDTAVYYCARWGDEGFDIWGQGTLVTVSS VL: DIQMTQSPSSLSASVGDRVTITCRASQGISNWLAWYQQKPGKAPKLLIYGASSLQSGVPSRFSGSGSGTDFTLTISSLQPEDFATYYCQQYSSFPTTFGQGTKVEIKR |  |  |
